According to patent US20050233350A1:

Experiments:
[1] = target: T1, recombinant HLA-A2.1 protein with β2-microglobulin (human); assay: cell free HLA-A2.1 peptide binding (competition) assay, HA-1^R against HA-1^H; settings: remark: other sources report otherwise
[2] = target: T1, recombinant HLA-A2.1 protein with …; assay: cell free competition assay: inhibition of binding of fluorescent [..] to recombinant HLA-A2.1 and β2-microglobulin, gel filtration, 4 experiments; settings: remark: other sources report otherwise

fold lower binding affinity against the HA-1^H peptide [1] [fold] | IC50 [2] [nM] | Binder
10 | 365 | VLRDDLLEA [HA-1^R peptide … (allelic counterpart of HA-1, synthetic)]
 | 30 | VLHDDLLEA [HA-1^H peptide … (minor histocompatibility antigen HA-1 nonapeptide, synthetic)]
